Reference: publication doi:10.1101/2023.09.08.556349 (bioRxiv, 2023)

B1: 3548-S-2 (antibody, V domains shown)
VH: QVQLVESGPGLVKPSQTLSLTCTVSGGSISSGGYYWSWIRQHPGRGLERIGYIYYSGSTYYNPSLKSRVTISVDTSKDQFSLKLTSVTAADSAVYYCARGSRNDLRDFDYWGQGTLVTVSS
VL: QSVMTQPPSVSGAPGQRVTISCSGSSSNIGNNYVSWYQQLPGTAPKLLIYGNSNRSSRVPDRFSGSKSGTSASLAITGLQAEDEADYYCQSYNSSLSGLVVFGGGTQLTAL
B2: 3548-RBD-15 (antibody, V domains shown)
VH: QVQLQESGPGLVKPSETLSLTCTVSGGSVSSYYWSWIRQPPGKGLEWIGYIYYSGSTNYNPSLKSRVTISVDTSKNQFSLKLSSVTAADTAVYYCAKGIYSSSSYWGDPWGQGTLVTVSS
VL: not shown

Key:
[1] = target: SARS-CoV-2 RBD-SD1 (Wu), S residues 319 to 591 (SARS-CoV-2 Wuhan-Hu-1, UniProt P0DTC2); test: ELISA
[2] = target: SARS-CoV-2 Spike S1-His Tag (HPLC-verified), NR-53798 (SARS-CoV-2 Wuhan-Hu-1, UniProt P0DTC2); test: ELISA

Binder	binding result [1]	binding result [2]
B1	binds	–
B2	binds	binds
